The text below walks through data of the supplement of paper PMC10724198.

± gives the standard deviation of the averaged measurements.

The test system of series [1] is Saccharomyces cerevisiae. Kind of series: protein stability index of tFT-peptide fusion (C-terminal peptide) (PSI (0-1 scale)); higher = more stable (slower turnover). The method, then: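 MPS profiling in S. cerevisiae of the tFT-X12 degron library: putative degron peptides plus stable controls, 12 aa, fused to the C-terminus of a sfGFP-mCherry timer. Cells are FACS-sorted into 8 mCherry/sfGFP bins and deep-sequenced. PSI runs from 0 (unstable) to 1 (stable). Backgrounds are wild type, das1Δ and doa10Δ at 30 °C, and wild type, das1Δ, cdc34-1 and cdc53-1 at 37 °C; 2-3 technical replicates each.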

Series [2] concerns Saccharomyces cerevisiae. The series is described as above. The note with it: genetic background: wild type; temperature: 30 C.
Where [3] appears, read: genetic background: cdc34-1, temperature: 37 C.
Where [4] appears, read: genetic background: cdc53-1, temperature: 37 C.
Where [5] appears, read: genetic background: das1 deletion, temperature: 30 C.
[6] abbreviates: genetic background: das1 deletion, temperature: 37 C.
Where [7] appears, read: genetic background: doa10 deletion, temperature: 30 C.
[8] abbreviates: genetic background: wild type, temperature: 30 C.
Where [9] appears, read: genetic background: wild type, temperature: 37 C.
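Note: PSI is a weighted mean of sequencing reads over stability bins, variants kept only with over 10 reads, mCherry proximal and sfGFP distal, peptide attached via GGGS linker.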

On to IFFYQLYVDRLC, for which the protein stability index with Saccharomyces cerevisiae [1] (setting [3]) was 0.227 ± 0.05; with Saccharomyces cerevisiae [1] (setting [4]) it was 0.292 ± 0.0067; in the series with Saccharomyces cerevisiae [1] (setting [5]), 0.229 ± 0.035; in the series with Saccharomyces cerevisiae [1] (setting [6]) it was 0.412 ± 0.011; with Saccharomyces cerevisiae [1] (setting [7]), 0.0857 ± 0.012; in the series on Saccharomyces cerevisiae [1] (setting [8]), 0.0803 ± 0.01. Moreover, the results for the protein stability index in the series with Saccharomyces cerevisiae [1] (setting [9]) and in the series with Saccharomyces cerevisiae [2] were 0.0746 ± 0.0054 and 0.151 ± 0.059, respectively.
Turning to IFSGCRIALSVF, the protein stability index was found to be 0.0412 ± 0.013 with Saccharomyces cerevisiae [1] (setting [3]); 0.052 ± 0.021 in the series on Saccharomyces cerevisiae [1] (setting [4]); 0.188 ± 0.018 in the series on Saccharomyces cerevisiae [1] (setting [5]); 0.165 ± 0.012 with Saccharomyces cerevisiae [1] (setting [6]); 0.104 ± 0.0034 in the series with Saccharomyces cerevisiae [1] (setting [7]); 0.116 ± 0.01 in the series on Saccharomyces cerevisiae [1] (setting [8]). For the same sequence, the protein stability index with Saccharomyces cerevisiae [1] (setting [9]) is 0.0944 ± 0.039; in the series with Saccharomyces cerevisiae [2], 0.181 ± 0.0085.
Consider IFSTQMVRFSLL, for which the protein stability index with Saccharomyces cerevisiae [1] (setting [3]) turned out to be 0.629 ± 0.052; in the series with Saccharomyces cerevisiae [1] (setting [4]), 0.7324 ± 0.0061; with Saccharomyces cerevisiae [1] (setting [5]) it was 0.662 ± 0.0074; in the series with Saccharomyces cerevisiae [1] (setting [6]), 0.7692 ± 0.0033; in the series with Saccharomyces cerevisiae [1] (setting [7]), 0.261 ± 0.0058; in the series on Saccharomyces cerevisiae [1] (setting [8]) it was 0.272 ± 0.017. The protein stability index with Saccharomyces cerevisiae [1] (setting [9]) was 0.422 ± 0.018; in the series on Saccharomyces cerevisiae [2] it was 0.362 ± 0.019.
For the sequence IFVFVSFPSCVL, the protein stability index with Saccharomyces cerevisiae [1] (setting [3]) was determined as 0.603 ± 0.062; with Saccharomyces cerevisiae [1] (setting [4]), 0.644 ± 0.022; in the series with Saccharomyces cerevisiae [1] (setting [5]), 0.56 ± 0.041; with Saccharomyces cerevisiae [1] (setting [6]) it was 0.627 ± 0.0096; in the series on Saccharomyces cerevisiae [1] (setting [7]), 0.35 ± 0.0042; in the series on Saccharomyces cerevisiae [1] (setting [8]), 0.399 ± 0.026. Further, the results for the protein stability index in the series with Saccharomyces cerevisiae [1] (setting [9]) and in the series on Saccharomyces cerevisiae [2] were 0.568 ± 0.03 and 0.468 ± 0.012, respectively.
As for ILFWSLLVSTIR, the protein stability index came out at 0.13 ± 0.031 in the series with Saccharomyces cerevisiae [1] (setting [3]); 0.223 ± 0.056 with Saccharomyces cerevisiae [1] (setting [4]); 0.174 ± 0.034 in the series on Saccharomyces cerevisiae [1] (setting [5]); 0.263 ± 0.0027 with Saccharomyces cerevisiae [1] (setting [6]); 0.137 ± 0.017 in the series with Saccharomyces cerevisiae [1] (setting [7]); 0.149 ± 0.035 in the series with Saccharomyces cerevisiae [1] (setting [8]). Besides, the protein stability index is 0.266 ± 0.004 in the series with Saccharomyces cerevisiae [1] (setting [9]) and 0.177 ± 0.082 with Saccharomyces cerevisiae [2].
ILRAGITYVYAV: the protein stability index stood at 0.515 ± 0.014 in the series with Saccharomyces cerevisiae [1] (setting [3]); 0.544 ± 0.036 with Saccharomyces cerevisiae [1] (setting [4]); 0.325 ± 0.038 in the series with Saccharomyces cerevisiae [1] (setting [5]); 0.5463 ± 0.0033 in the series with Saccharomyces cerevisiae [1] (setting [6]); 0.264 ± 0.0082 in the series on Saccharomyces cerevisiae [1] (setting [7]); 0.296 ± 0.016 with Saccharomyces cerevisiae [1] (setting [8]). Moreover, the protein stability index with Saccharomyces cerevisiae [1] (setting [9]) was 0.493 ± 0.013; in the series on Saccharomyces cerevisiae [2], 0.399 ± 0.04.
For the sequence ILVFHFWPFLVR, the protein stability index in the series on Saccharomyces cerevisiae [1] (setting [3]) worked out at 0.411 ± 0.046; with Saccharomyces cerevisiae [1] (setting [4]) it was 0.435 ± 0.015; with Saccharomyces cerevisiae [1] (setting [5]), 0.351 ± 0.018; in the series on Saccharomyces cerevisiae [1] (setting [6]), 0.523 ± 0.018; in the series with Saccharomyces cerevisiae [1] (setting [7]) it was 0.418 ± 0.027; in the series with Saccharomyces cerevisiae [1] (setting [8]), 0.35 ± 0.017. Moreover, the results for the protein stability index in the series with Saccharomyces cerevisiae [1] (setting [9]) and in the series with Saccharomyces cerevisiae [2] were 0.503 ± 0.017 and 0.426 ± 0.04, respectively.
For the sequence IPGGRPLLVEVR, the protein stability index with Saccharomyces cerevisiae [1] (setting [3]) amounted to 0.339 ± 0.02; in the series with Saccharomyces cerevisiae [1] (setting [4]), 0.384 ± 0.018; with Saccharomyces cerevisiae [1] (setting [5]), 0.254 ± 0.044; in the series on Saccharomyces cerevisiae [1] (setting [6]), 0.518 ± 0.074; in the series on Saccharomyces cerevisiae [1] (setting [7]) it was 0.216 ± 0.0041; in the series on Saccharomyces cerevisiae [1] (setting [8]), 0.264 ± 0.033. Moreover, the protein stability index in the series on Saccharomyces cerevisiae [1] (setting [9]) came to 0.439 ± 0.015; in the series on Saccharomyces cerevisiae [2] it was 0.426 ± 0.035.
As to IRHALHFRVVAV, the protein stability index in the series on Saccharomyces cerevisiae [1] (setting [3]) worked out at 0.505 ± 0.035; with Saccharomyces cerevisiae [1] (setting [4]), 0.545 ± 0.016; in the series on Saccharomyces cerevisiae [1] (setting [5]), 0.432 ± 0.015; in the series with Saccharomyces cerevisiae [1] (setting [6]) it was 0.568 ± 0.0082; in the series on Saccharomyces cerevisiae [1] (setting [7]) it was 0.3943 ± 0.0036; with Saccharomyces cerevisiae [1] (setting [8]), 0.419 ± 0.013. Moreover, the protein stability index in the series with Saccharomyces cerevisiae [1] (setting [9]) was found to be 0.5286 ± 0.0022; in the series on Saccharomyces cerevisiae [2] it was 0.48 ± 0.0076.
With IRWCLVSVFYVV, the protein stability index in the series on Saccharomyces cerevisiae [1] (setting [3]) was found to be 0.214 ± 0.028; in the series with Saccharomyces cerevisiae [1] (setting [4]), 0.364 ± 0.033; in the series with Saccharomyces cerevisiae [1] (setting [5]) it was 0.245 ± 0.033; in the series with Saccharomyces cerevisiae [1] (setting [6]) it was 0.444 ± 0.01; in the series with Saccharomyces cerevisiae [1] (setting [7]), 0.0753 ± 0.012; in the series with Saccharomyces cerevisiae [1] (setting [8]), 0.0978 ± 0.02. The figures for the protein stability index in the series with Saccharomyces cerevisiae [1] (setting [9]) and in the series with Saccharomyces cerevisiae [2] were 0.13554 ± 0.00011 and 0.192 ± 0.038, respectively.
As for ISAVLFFLYLSF, the protein stability index in the series with Saccharomyces cerevisiae [1] (setting [3]) is 0.163 ± 0.008; in the series with Saccharomyces cerevisiae [1] (setting [4]) it was 0.108 ± 0.019; in the series with Saccharomyces cerevisiae [1] (setting [5]) it was 0.24 ± 0.018; in the series on Saccharomyces cerevisiae [1] (setting [6]), 0.326 ± 0.0042; in the series on Saccharomyces cerevisiae [1] (setting [7]), 0.459 ± 0.035; in the series with Saccharomyces cerevisiae [1] (setting [8]), 0.246 ± 0.017. The protein stability index in the series with Saccharomyces cerevisiae [1] (setting [9]) was determined as 0.272 ± 0.009; in the series with Saccharomyces cerevisiae [2], 0.308 ± 0.025.
For IVVSSRFLGFFC, the protein stability index was 0.53 ± 0.073 in the series on Saccharomyces cerevisiae [1] (setting [3]); 0.701 ± 0.07 in the series on Saccharomyces cerevisiae [1] (setting [4]); 0.62 ± 0.032 with Saccharomyces cerevisiae [1] (setting [5]); 0.742 ± 0.0077 in the series with Saccharomyces cerevisiae [1] (setting [6]); 0.0947 ± 0.012 in the series on Saccharomyces cerevisiae [1] (setting [7]); 0.102 ± 0.012 in the series with Saccharomyces cerevisiae [1] (setting [8]). Besides, the values for the protein stability index in the series with Saccharomyces cerevisiae [1] (setting [9]) and in the series on Saccharomyces cerevisiae [2] were 0.18 ± 0.0083 and 0.2 ± 0.0025, respectively.
Regarding IWRGGSAVPMIC, the protein stability index was 0.627 ± 0.075 in the series with Saccharomyces cerevisiae [1] (setting [3]); 0.686 ± 0.022 in the series with Saccharomyces cerevisiae [1] (setting [4]); 0.572 ± 0.025 with Saccharomyces cerevisiae [1] (setting [5]); 0.721 ± 0.013 in the series on Saccharomyces cerevisiae [1] (setting [6]); 0.167 ± 0.0098 with Saccharomyces cerevisiae [1] (setting [7]); 0.195 ± 0.023 in the series with Saccharomyces cerevisiae [1] (setting [8]). Further, the protein stability index with Saccharomyces cerevisiae [1] (setting [9]) turned out to be 0.351 ± 0.02; in the series with Saccharomyces cerevisiae [2] it was 0.267 ± 0.058.
In the case of IYTLIINKSKAQ, the protein stability index is 0.686 ± 0.024 in the series on Saccharomyces cerevisiae [1] (setting [3]); 0.685 ± 0.011 in the series on Saccharomyces cerevisiae [1] (setting [4]); 0.626 ± 0.046 in the series on Saccharomyces cerevisiae [1] (setting [5]); 0.696 ± 0.072 with Saccharomyces cerevisiae [1] (setting [6]); 0.282 ± 0.024 in the series with Saccharomyces cerevisiae [1] (setting [7]); 0.362 ± 0.11 with Saccharomyces cerevisiae [1] (setting [8]). Moreover, the results for the protein stability index with Saccharomyces cerevisiae [1] (setting [9]) and with Saccharomyces cerevisiae [2] were 0.524 ± 0.017 and 0.429 ± 0.041, respectively.
As to KDIFQIYTLYVF, the protein stability index in the series on Saccharomyces cerevisiae [1] (setting [3]) stood at 0.407 ± 0.011; in the series on Saccharomyces cerevisiae [1] (setting [4]), 0.4611 ± 0.0014; in the series with Saccharomyces cerevisiae [1] (setting [5]) it was 0.329 ± 0.035; with Saccharomyces cerevisiae [1] (setting [6]), 0.502 ± 0.023; in the series with Saccharomyces cerevisiae [1] (setting [7]), 0.277 ± 0.0099; in the series on Saccharomyces cerevisiae [1] (setting [8]), 0.3 ± 0.022. The protein stability index in the series on Saccharomyces cerevisiae [1] (setting [9]) worked out at 0.467 ± 0.012; with Saccharomyces cerevisiae [2], 0.39 ± 0.034.
In the case of KFWVVLIEIKYH, the protein stability index in the series on Saccharomyces cerevisiae [1] (setting [3]) is 0.0696 ± 0.0057; in the series on Saccharomyces cerevisiae [1] (setting [4]) it was 0.132 ± 0.03; in the series with Saccharomyces cerevisiae [1] (setting [5]), 0.159 ± 0.036; with Saccharomyces cerevisiae [1] (setting [6]) it was 0.35 ± 0.092; with Saccharomyces cerevisiae [1] (setting [7]), 0.0681 ± 0.015; in the series on Saccharomyces cerevisiae [1] (setting [8]), 0.0691 ± 0.036. Further, the protein stability index in the series on Saccharomyces cerevisiae [1] (setting [9]) turned out to be 0.1043 ± 0.00085; in the series on Saccharomyces cerevisiae [2] it was 0.172 ± 0.0091.
